From IntAct's records for PubMed 29039417

B1: Protein PTHB1 (Homo sapiens), Q3SYG4 (parent)
chain: MSLFKARDWWSTILGDKEEFDQGCLCLANVDNSGNGQDKIIVGSFMGYLRIFSPHPAKTGDGAQAEDLLLEVDLRDPVLQVEVGKFVSGTEMLHLAVLHSRKLCVYSVSGTLGNVEHGNQCQMKLMYEHNLQRTACNMTYGSFGGVKGRDLICIQSMDGMLMVFEQESYAFGRFLPGFLLPGPLAYSSRTDSFLTVSSCQQVESYKYQVLAFATDADKRQETEQQKLGSGKRLVVDWTLNIGEQALDICIVSFNQSASSVFVLGERNFFCLKDNGQIRFMKKLDWSPSCFLPYCSVSEGTINTLIGNHNNMLHIYQDVTLKWATQLPHIPVAVRVGCLHDLKGVIVTLSDDGHLQCSYLGTDPSLFQAPNVQSRELNYDELDVEMKELQKIIKDVNKSQGVWPMTEREDDLNVSVVVSPNFDSVSQATDVEVGTDLVPSVTVKVTLQNRVILQKAKLSVYVQPPLELTCDQFTFEFMTPDLTRTVSFSVYLKRSYTPSELEGNAVVSYSRPTDRNPDGIPRVIQCKFRLPLKLICLPGQPSKTASHKITIDTNKSPVSLLSLFPGFASQSDDDQVNVMGFHFLGGARITVLASKTSQRYRIQSEQFEDLWLITNELILRLQEYFEKQGVKDFACSFSGSIPLQEYFELIDHHFELRINGEKLEELLSERAVQFRAIQRRLLARFKDKTPAPLQHLDTLLDGTYKQVIALADAVEENQGNLFQSFTRLKSATHLVILLIALWQKLSADQVAILEAAFLPLQEDTQELGWEETVDAAISHLLKTCLSKSSKEQALNLNSQLNIPKDTSQLKKHITLLCDRLSKGGRLCLSTDAAAPQTMVMPGGCTTIPESDLEERSVEQDSTELFTNHRHLTAETPRPEVSPLQGVSE
partner: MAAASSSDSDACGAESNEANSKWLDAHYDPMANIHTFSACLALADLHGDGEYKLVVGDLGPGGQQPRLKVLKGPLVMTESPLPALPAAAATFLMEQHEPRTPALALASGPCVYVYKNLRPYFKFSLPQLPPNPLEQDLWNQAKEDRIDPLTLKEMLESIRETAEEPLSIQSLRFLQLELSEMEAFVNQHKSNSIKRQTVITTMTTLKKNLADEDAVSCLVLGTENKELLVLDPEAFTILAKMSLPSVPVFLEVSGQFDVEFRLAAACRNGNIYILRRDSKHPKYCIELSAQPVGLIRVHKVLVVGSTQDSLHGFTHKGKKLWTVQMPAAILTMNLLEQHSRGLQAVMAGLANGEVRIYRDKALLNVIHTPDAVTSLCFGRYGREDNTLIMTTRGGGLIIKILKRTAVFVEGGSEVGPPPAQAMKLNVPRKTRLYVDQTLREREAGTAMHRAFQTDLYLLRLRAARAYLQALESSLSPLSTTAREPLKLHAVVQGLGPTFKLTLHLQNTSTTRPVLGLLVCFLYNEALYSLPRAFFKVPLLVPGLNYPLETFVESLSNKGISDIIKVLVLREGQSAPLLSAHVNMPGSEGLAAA

Variants of: B1
Conditions: with bbs1_human BBS1, Q8NFJ9

Variant	effect of a mutation on the interaction
T771E	with no effect
D747E	with no effect
D409A	with no effect
V772E	with no effect
Q574E	with no effect
G538E	with no effect
S498E	with no effect
D572K	with no effect
I738E	with no effect
I738K	disrupting interaction strength
S849E	with no effect
T763K	with no effect
A774E	with no effect
L680K	with no effect
S545K	with no effect
S418A	with no effect
L465E	with no effect
A755K	with no effect
C843K	with no effect
V461E	with no effect
L560A	with no effect

Variant	effect of a mutation on the interaction
L827A	with no effect
K809A	with no effect
M839E	with no effect
A746E	with no effect
Q748E	with no effect
H651T	disrupting interaction strength
G585E	with no effect
E664A	with no effect
S637K	with no effect
R598K	with no effect
P840E	with no effect
C469K	with no effect
R854E	with no effect
R528A	with no effect
D551A	with no effect
M578K	with no effect
G638K	with no effect
Y623E	with no effect
C525K	with no effect
M837K	with no effect
T697A	with no effect

Variant	effect of a mutation on the interaction
T549A	with no effect
T543A	with no effect
P511K	with no effect
R407E	with no effect
S541K	with no effect
I676E	with no effect
K630A	with no effect
V671K	with no effect
Q426K	with no effect
N800E	with no effect
I451E	with no effect
L737E	with no effect
S880E	with no effect
R824E	with no effect
L642E	with no effect
D700A	with no effect
H694K	with no effect
E604A	with no effect
S635A	with no effect
D631A	with no effect
Q835K	with no effect

Other lines, results leading:

effect of a mutation on the interaction	Variant
with no effect	V432K
with no effect	V772A
with no effect	S414K
with no effect	T428A
with no effect	G884E
with no effect	L611K
with no effect	S486E
with no effect	T478K
with no effect	Q807A
with no effect	C634K
with no effect	I601A
with no effect	E501A
with no effect	P463K
with no effect	T731K
with no effect	C469A
disrupting interaction strength	L699K
with no effect	K492A
with no effect	I588E
with no effect	P520A
with no effect	L665A
with no effect	L780A
with no effect	R600A
with no effect	R726K
with no effect	L814K
with no effect	N614E
with no effect	S558E
with no effect	G823A
with no effect	L759K
with no effect	F721E
with no effect	Q471E
